The target in this assay is T1, S. cerevisiae Upf1 helicase domain, Upf1-HD-His6 (residues 221-851) (S. cerevisiae, UniProt P30771 221-851).
T1 construct: Upf1 helicase domain, S. cerevisiae, residues 221-851; residues 224-851 seen in the final model; for the crystal it says only that the protein was purified on TALON resin; source: E. coli BL21 (DE3) Gold, purified (TALON, heparin, SEC); not shown: His6, C-terminal, kept
T1 sequence (looked up): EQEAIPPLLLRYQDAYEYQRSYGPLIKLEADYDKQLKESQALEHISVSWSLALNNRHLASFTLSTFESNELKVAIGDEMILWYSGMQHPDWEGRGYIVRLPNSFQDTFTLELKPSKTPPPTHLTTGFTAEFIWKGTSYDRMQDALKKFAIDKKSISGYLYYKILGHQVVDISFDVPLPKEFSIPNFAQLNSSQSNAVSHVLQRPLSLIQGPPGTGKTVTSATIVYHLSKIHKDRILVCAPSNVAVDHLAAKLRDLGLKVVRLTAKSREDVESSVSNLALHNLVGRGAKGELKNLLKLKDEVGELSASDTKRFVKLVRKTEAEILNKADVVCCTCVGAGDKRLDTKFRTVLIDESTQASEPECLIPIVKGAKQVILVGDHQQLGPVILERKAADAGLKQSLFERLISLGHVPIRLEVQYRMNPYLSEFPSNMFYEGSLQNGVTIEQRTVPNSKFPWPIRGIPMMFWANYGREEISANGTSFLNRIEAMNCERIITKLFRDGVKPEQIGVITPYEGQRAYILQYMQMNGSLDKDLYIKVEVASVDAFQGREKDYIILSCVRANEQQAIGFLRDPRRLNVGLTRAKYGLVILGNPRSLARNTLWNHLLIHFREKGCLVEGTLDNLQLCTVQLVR
In words: ITC; His6-ZZ-Nmd4 proteins (260 µM full-length and arm, 330 µM PIN) injected into Upf1-HD-His6 (30-35 µM); 20°C; 100 mM Bis-Tris pH 6.5, 200 mM NaCl, 5 mM MgCl2, 5 mM 2-mercaptoethanol; one-binding site model. To be noted: both partners purified. Background: Isothermal titration calorimetry measures the heat released or taken up as one component is titrated into another.

B1: His6-ZZ-Nmd4 « arm » (residues 168-218) (domain or fragment, S. cerevisiae, UniProt Q12129 168-218, looked up)
chain: NDKSFRESEKFNNMMLKNGTKEESENGREIIRTNFNKTVYASRGTGELWSP
notes: Nmd4 C-terminal arm, S. cerevisiae, residues 168-218; also called « arm » region; source: E. coli BL21 (DE3) Gold, purified; not shown: His6, N-terminal, kept; ZZ, N-terminal, kept
In the case of B1, the affinity, expressed as Kd, was 1.96 µM.

B2: His6-ZZ-Nmd4 full-length protein (S. cerevisiae) (natural protein, UniProt Q12129 1-218, looked up)
chain: MTQYNFIIDASAFEKGLGNIKRWCSDCTEAVTLNFYIPTFTLNELDFLQQRRKSFAARESLKFIDRLDDSKFANLKVFIEFPEVLDIILWSDVMEHNDSSGKINIAKLPKRLKNLLKSCIYKCYLEGNEGLHWFLISEDPQIREMAMQCNIPSCSIVDVDSILSKDMNDKSFRESEKFNNMMLKNGTKEESENGREIIRTNFNKTVYASRGTGELWSP
notes: also called full-length Nmd4; His6-ZZ-Nmd4-FL; source: E. coli BL21 (DE3) Gold, purified (Ni-NTA, heparin, SEC; 3C digestion omitted); not shown: His6, N-terminal, kept; ZZ, N-terminal, kept
As for B2, the Kd (in general, a measure of binding affinity in units of concentration) stood at 2.1 µM.
